Laboratory results taken from article PMC4495445.

B1: Gda1p: N41D (protein)
parent chain: MAPIFRNYRFAIGAFAVIMLILLIKTSSIGPPSIARTVTPNASIPKTPEDISILPVNDEPGYLQDSKTEQNYPELADAVKSQTSQTCSEEHKYVIMIDAGSTGSRVHIYKFDVCTSPPTLLDEKFDMLEPGLSSFDTDSVGAANSLDPLLKVAMNYVPIKARSCTPVAVKATAGLRLLGDAKSSKILSAVRDHLEKDYPFPVVEGDGVSIMGGDEEGVFAWITTNYLLGNIGANGPKLPTAAVFDLGGGSTQIVFEPTFPINEKMVDGEHKFDLKFGDENYTLYQFSHLGYGLKEGRNKVNSVLVENALKDGKILKGDNTKTHQLSSPCLPPKVNATNEKVTLESKETYTIDFIGPDEPSGAQCRFLTDEILNKDAQCQSPPCSFNGVHQPSLVRTFKESNDIYIFSYFYDRTRPLGMPLSFTLNELNDLARIVCKGEETWNSVFSGIAGSLDELESDSHFCLDLSFQVSLLHTGYDIPLQRELRTGKKIANKEIGWCLGASLPLLKADNWKCKIQSA
B2: Gda1p: N335D (protein)
parent chain: MAPIFRNYRFAIGAFAVIMLILLIKTSSIGPPSIARTVTPNASIPKTPEDISILPVNDEPGYLQDSKTEQNYPELADAVKSQTSQTCSEEHKYVIMIDAGSTGSRVHIYKFDVCTSPPTLLDEKFDMLEPGLSSFDTDSVGAANSLDPLLKVAMNYVPIKARSCTPVAVKATAGLRLLGDAKSSKILSAVRDHLEKDYPFPVVEGDGVSIMGGDEEGVFAWITTNYLLGNIGANGPKLPTAAVFDLGGGSTQIVFEPTFPINEKMVDGEHKFDLKFGDENYTLYQFSHLGYGLKEGRNKVNSVLVENALKDGKILKGDNTKTHQLSSPCLPPKVNATNEKVTLESKETYTIDFIGPDEPSGAQCRFLTDEILNKDAQCQSPPCSFNGVHQPSLVRTFKESNDIYIFSYFYDRTRPLGMPLSFTLNELNDLARIVCKGEETWNSVFSGIAGSLDELESDSHFCLDLSFQVSLLHTGYDIPLQRELRTGKKIANKEIGWCLGASLPLLKADNWKCKIQSA
B3: Gda1p: N41D/N280D/N335D (protein)
parent chain: MAPIFRNYRFAIGAFAVIMLILLIKTSSIGPPSIARTVTPNASIPKTPEDISILPVNDEPGYLQDSKTEQNYPELADAVKSQTSQTCSEEHKYVIMIDAGSTGSRVHIYKFDVCTSPPTLLDEKFDMLEPGLSSFDTDSVGAANSLDPLLKVAMNYVPIKARSCTPVAVKATAGLRLLGDAKSSKILSAVRDHLEKDYPFPVVEGDGVSIMGGDEEGVFAWITTNYLLGNIGANGPKLPTAAVFDLGGGSTQIVFEPTFPINEKMVDGEHKFDLKFGDENYTLYQFSHLGYGLKEGRNKVNSVLVENALKDGKILKGDNTKTHQLSSPCLPPKVNATNEKVTLESKETYTIDFIGPDEPSGAQCRFLTDEILNKDAQCQSPPCSFNGVHQPSLVRTFKESNDIYIFSYFYDRTRPLGMPLSFTLNELNDLARIVCKGEETWNSVFSGIAGSLDELESDSHFCLDLSFQVSLLHTGYDIPLQRELRTGKKIANKEIGWCLGASLPLLKADNWKCKIQSA
B4: Gda1p: N280D (protein)
parent chain: MAPIFRNYRFAIGAFAVIMLILLIKTSSIGPPSIARTVTPNASIPKTPEDISILPVNDEPGYLQDSKTEQNYPELADAVKSQTSQTCSEEHKYVIMIDAGSTGSRVHIYKFDVCTSPPTLLDEKFDMLEPGLSSFDTDSVGAANSLDPLLKVAMNYVPIKARSCTPVAVKATAGLRLLGDAKSSKILSAVRDHLEKDYPFPVVEGDGVSIMGGDEEGVFAWITTNYLLGNIGANGPKLPTAAVFDLGGGSTQIVFEPTFPINEKMVDGEHKFDLKFGDENYTLYQFSHLGYGLKEGRNKVNSVLVENALKDGKILKGDNTKTHQLSSPCLPPKVNATNEKVTLESKETYTIDFIGPDEPSGAQCRFLTDEILNKDAQCQSPPCSFNGVHQPSLVRTFKESNDIYIFSYFYDRTRPLGMPLSFTLNELNDLARIVCKGEETWNSVFSGIAGSLDELESDSHFCLDLSFQVSLLHTGYDIPLQRELRTGKKIANKEIGWCLGASLPLLKADNWKCKIQSA

Test: DAPI staining after 24 h in sporulation medium
Details: glycan lost; control: gda1Δ strain with wild-type GDA1

other: sporulation efficiency, no change:
B1
B2
B3
B4
